Legend:
A5-9 cells = test: Puromycin sensitivity of the parent strain; format: cell-based, mouse
Description: (§1) The DNA that controls the production of Aβ is investigated as follows. First, the DNA library is transfected to the cell line where the two recombinant gene constructs described above are introduced (hereinafter referred to as the parent strain). Thereafter, for example, when a drug resistant gene is used as the selection marker, a cell bearing the DNA to enhance the concentration of the corresponding drug and become resistant in the presence of the drug even at a high concentration is selected. […]
(§2) The A5-9 cells or A5-9-PS1 cells described in EXAMPLE 4, to which the human hippocampus cDNA library was transfected through the infection with retrovirus, were cultured in the presence of puromycin of a high concentration (A5-9 cells, 25 μg/ml; A5-9-PS1 cells, 9 μg/ml). […] The concentrations of puromycin used were determined based on the respective minimum puromycin concentrations of 20 μg/ml and 5 μg/ml, at which the A5-9 cells and A5-9-PS1 cells as the parent strain were extinct. […] That is, Aβ was detected as follows. The Aβ secreted in a medium by incubation for 3 days (initial cell concentration of 2×10^5 cells/ml, medium of 3 ml) was immunoprecipitated by anti-Aβ monoclonal antibody 6E10 and the deposits were detected by high sensitive western blotting using anti-Aβ antibody. […]

A5-9-PS1 cells = test: Puromycin sensitivity of the parent strain; format: cell-based, mouse
Description: as §1, §2

[1] = system: HEK293 cells where APP and PS1 were overexpressed; test: Aβ secreted into the medium by HEK293 cells transfected with cDNA in pcDNA3, assayed by ELISA; format: cell-based; conditions: for Fold increase in Aβ42 versus vector control: rate of increase compared to vector-alone control
Description: From the clones selected in EXAMPLE 5 above to increase the production of Aβ, human hippocampus-derived cDNA was amplified by PCR using virus vector pMX sites as primers (which were identified to be sense strand primer, SEQ ID NO: 16; […] and antisense strand primer, SEQ ID NO: 17; […]). The cDNA obtained was ligated with vector pcDNA3 (Invitrogen, Inc.), which was transfected to 4×10^5 cells of HEK293 cells (Tomita S., et al., J. Biol. Chem. 273: 19304-19310, 1998; Tomita S., et al., J. Biol. Chem. 275: 13056-13060, 2000) where APP and PS1 were overexpressed. One day after, the medium was changed to a new medium followed by incubation for 24 hours. The amount of Aβ selected in the medium was assayed by ELISA (Asami-Odaka, A. et al., 34:10272, 1995). It was found so far that 3 kinds of human hippocampus-derived cDNAs increased the amount of Aβ produced (TABLE 2). One of them was identified to be identical with human cDNA (accession No. AAH06223) registered in Genbank. In the following procedures of the present invention, this cDNA was named gene A (SEQ ID NO: 4) and the protein encoding the cDNA was named Protein A (SEQ ID NO: 1). […] The one found to be a gene to control the production of Aβ was a protein, Herp (Kokame K. et al., J. Biol. Chem. 275: 3286, 2000; accession no. AB034989) (cDNA: SEQ ID NO: 5, protein: SEQ ID NO: 2), which was localized in the endoplasmic reticulum and its expression was induced by endoplasmic reticulum stress but its function was unknown. Further the other one found to be a gene to control the production of Aβ was cDNA (cDNA: SEQ ID NO: 6, protein: SEQ ID NO: 3) containing the 1-389 internal sequence from the N terminus of 5-lipoxygenase (accession no. XM 005818).

[2] = Aβ in medium after 24 hours incubation, mean of 2 samples, vector control value in parenthesis

## COc1ccc(C[C@H](N)C(=O)N[C@H]2[C@@H](O)[C@H](n3cnc4c(N(C)C)ncnc43)O[C@@H]2CO)cc1 [puromycin]
A5-9 cells
  minimum puromycin concentration at which the cells were extinct: 20 µg/mL
A5-9-PS1 cells
  minimum puromycin concentration at which the cells were extinct: 5 µg/mL

B1: Protein A: human cDNA (Genbank AAH06223, SEQ ID NO: 4) encoding Protein A (SEQ ID NO: 1), function unknown (nucleic acid)
DNA: ATGTCGACGGCGGCGGTTCCGGAGCTGAAGCAGATCAGCCGGGTGGAGGCGATGCGCCTAGGGCCGGGCTGGAGCCACTCGTGCCACGCCATGCTGTACGCCGCCAACCCTGGGCAGCTCTTCGGCCGCATCCCCATGCGCTTCTCGGTGCTGATGCAGATGCGTTTCGACGGGCTGCTGGGCTTCCCCGGGGGCTTCGTGGACCGGCGCTTCTGGTCGCTGGAGGACGGCCTGAACCGGGTGCTGGGCCTGGGCCTGGGCTGCCTGCGCCTCACCGAGGCCGACTACCTGAGCTCGCACCTGACCGAGGGCCCACACCGCGTCGTGGCGCACCTGTACGCGCGGCAGCTGACGCTGGAGCAGCTGCACGCCGTGGAGATCAGCGCGGTGCACTCGCGCGACCACGGCCTGGAGGTGCTGGGCCTCGTGCGGGTCCCGCTGTACACCCAGAAGGACCGAGTCGGAGGCTTCCCCAACTTCCTGAGCAACGCCTTCGTGAGCACGGCTAAGTGCCAGCTCCTCTTTGCCCTCAAGGTGCTCAACATGATGCCCGAGGAGAAGCTGGTTGAGGCCCTGGCTGCAGCCACCGAGAAGCAGAAGAAGGCCCTGGAGAAGTTGCTCCCGGCCTCCTCT
modifications: Human
[1]; [2]
  Aβ40 Concentration [pM]: 378 ± 10 (232 ± 34) pM
  Aβ42 Concentration [pM]: 88 ± 22 (45 ± 2) pM
[1]; column beside the Aβ40 concentration
  Fold increase in Aβ42 versus vector control: 1.6
[1]; column beside the Aβ42 concentration
  Fold increase in Aβ42 versus vector control: 2.0

From patent US20040234990A1, “Method of screening alzheimer's disease-associated gene” (priority 2001, published 2004)
